Measurements from patent US20120225079A1.

Target: cleaved human IgG (human IgG cleaved with the endopeptidases IdeE and IdeE2) (human)
Assay: cell-based or functional assay

recombinant mature EndoSe of Streptococcus equi subsp. equi (lacking the N-terminal signal sequence) (enzyme)
lowest EndoSe concentration at which activity was observed (SDS-PAGE): 2.6 µg/mL
